Data taken from patent US20240279304A1, “DSG2 COMPOSITIONS AND METHODS” (Arvada Therapeutics, Inc., priority 2021, published 2024).

Legend:
anti-DSG2 antibody = anti-DSG2 antibody meso scale discovery (MSD) assay, blocking of anti-DSG2 antibody; format: binding; conditions: for % inhibition: fraction C (table title)
Experimental: (§1) The DSG2 fusion polypeptides were tested for the ability to block anti-DSG2 antibody by an anti-DSG2 antibody meso scale discovery (MSD) assay. […] The DSG2 fusion polypeptides were subjected to size exclusion chromatography and different elution fractions were examined. […] As shown in Table 7 and FIG. 1B, FIG. 1C, and FIG. 1D, enriching for fraction C improved the ability of the DSG2 fusion polypeptides to block ARVC patient serum.

[1] = Dynamic light scattering (DLS) of DSG2 fusion polypeptides; format: physicochemical; conditions: average polymer distribution index
Description: 6 candidates were compared to the reference sample.

[2] = tested on: ARVC serum (anti-DSG2 antibodies in serum obtained from ARVC patients); experiment: anti-DSG2 antibody MSD assay, blocking of ARVC patient serum; format: binding, human; set-up: % inhibition: concentration or dose not given beside the values; conditions: for % inhibition: fraction C (table title)
Experimental: as §1
ARVC diagnosis is based on complex tool known as Task Force Criteria, which can lead to varying levels of conviction about ARVC diagnosis. The utility of DSG2 antibodies as an indicator of ARVC disease state and severity was explored. Approximately 50 cc serum was collected from diagnosed ARVC patients. A total of 10 ARVC patients and 5 healthy controls were used for the analysis. ARVC serum samples were separated into more robust diagnosis and less robust diagnosis, based on available data in the patient medical records and anti-DSG2 antibody levels were compared using an anti-DSG2 antibody meso scale discovery (MSD)-based assay.

Molecule | ability to bind to and block anti-DSG2 antibody (in words) (anti-DSG2 antibody) | PDI [1] | % inhibition (anti-DSG2 antibody; sample: Anti-DSG2 antibody (200 ng/mL) control) | % inhibition (anti-DSG2 antibody; sample: Anti-DSG2 antibody (1000 ng/mL) control) | % inhibition (anti-DSG2 antibody; sample: no antibody control) | effect of enriching for fraction C on ability to block ARVC patient serum (in words) ([2]; fraction C vs whole preparation, FIG. 1B-1D) | % inhibition ([2]; sample: ARVC serum 1) | % inhibition ([2]; sample: ARVC serum 2) | % inhibition ([2]; sample: ARVC serum 3) | % inhibition ([2]; sample: ARVC serum 4) | % inhibition ([2]; sample: ARVC serum 5)
DSG2FP#7: DSG2 extracellular domain (50-609 of SEQ ID NO: 1); GGGGS peptide linker; IgG4 Fc domain | able to bind to and block anti-DSG2 antibodies | 0.30 | – | – | – | – | – | – | – | – | –
DSG2FP#5: IgG1 Fc 104-330 (L234A, L235A, P329G; SEQ ID NO: 31); DSG2 extracellular domain (50-609 of SEQ ID NO: 1) | able to bind to and block anti-DSG2 antibodies | 0.31 | – | – | – | – | – | – | – | – | –
DSG2FP#6: DSG2 extracellular domain (50-609 of SEQ ID NO: 1); IgG4 Fc 99-327 (S228P, L235E, P329G) SEQ ID NO: 32 | able to bind to and block anti-DSG2 antibodies | 0.32 | – | – | – | – | – | – | – | – | –
DSG2FP#2: DSG2 extracellular domain (50-609 of SEQ ID NO: 1); IgG1 Fc 104-330 (L234A, L235A, P329G) SEQ ID NO: 31 (protein) AWITAPVALREGEDLSKKNPIAKIHSDLAEERGLKITYKYTGKGITEPPFGIFVFNKDTGELNVTSILDREETPFFLLTGYALDARGNNVEKPLELRIKVLDINDNEPVFTQDVFVGSVEELSAAHTLVMKINATDADEPNTLNSKISYRIVSLEPAYPPVFYLNKDTGEIYTTSVTLDREEHSSYTLTVEARDGNGEVTDKPVKQAQVQIRILDVNDNIPVVENKVLEGMVEENQVNVEVTRIKVFDADEIGSDNWLANFTFASGNEGGYFHIETDAQTNEGIVTLIKEVDYEEMKNLDFSVIVANKAAFHKSIRSKYKPTPIPIKVKVKNVKEGIHFKSSVISIYVSESMDRSSKGQIIGNFQAFDEDTGLPAHARYVKLEDRDNWISVDSVTSEIKLAKLPDFESRYVQNGTYTVKIVAISEDYPRKTITGTVLINVEDINDNCPTLIEPVQTICHDAEYVNVTAEDLDGHPNSGPFSFSVIDKPPGMAEKWKIARQESTSVLLQQSEKKLGRSEIQFLISDNQGFSCPEKQVLTLTVCECLHGSGCREAQHDSYVGDKTHTCPPCPAPEAAGGPSVFLFPPKPKDTLMISRTPEVTCVVVDVSHEDPEVKFNWYVDGVEVHNAKTKPREEQYNSTYRVVSVLTVLHQDWLNGKEYKCKVSNKALGAPIEKTISKAKGQPREPQVYTLPPSRDELTKNQVSLTCLVKGFYPSDIAVEWESNGQPENNYKTTPPVLDSDGSFFLYSKLTVDKSRWQQGNVFSCSVMHEALHNHYTQKSLSLSPGK | able to bind to and block anti-DSG2 antibodies | 0.32 | 54.5% | 81.6% | −19.1% | more pronounced | 3.0% | 33.5% | 26.0% | 51.1% | 41.8%
